Biological target: T1, human c-Met/Fc fusion protein (R&D Systems) (human, UniProt P08581 25-932)
T1 construct: Bought reagent, coated on the ELISA plate at 2 ug/mL; also called human c-Met/Fc protein; not shown: Fc part of the bought fusion protein
Test: ELISA, human c-Met/Fc coated at 2 ug/mL, hybridoma culture supernatant, anti-mouse IgG-HRP
Procedure: Human c-Met/Fc fusion protein was seeded in an amount of 50 μL (2 μg/mL)/well to microtiter plates and allowed to adhere to the surface of each well. The antibody that remained unbound was removed by washing.
The hybridoma cell culture obtained in Reference Example 1.1.2 was added in an amount of 50 μL to each well of the plates and incubated for 1 hour. The cells remaining unreacted were washed out with a sufficient amount of Tris-buffered saline and Tween 20 (TBST). Goat anti-mouse IgG-horseradish peroxidase (HRP) was added to the plates and incubated for 1 hour at room temperature. The plates were washed with a sufficient amount of TBST, followed by reacting the peroxidase with a substrate (OPD). Absorbance at 450 nm was measured on an ELISA reader.

T1 sequence (P08581 25-932 limits assumed): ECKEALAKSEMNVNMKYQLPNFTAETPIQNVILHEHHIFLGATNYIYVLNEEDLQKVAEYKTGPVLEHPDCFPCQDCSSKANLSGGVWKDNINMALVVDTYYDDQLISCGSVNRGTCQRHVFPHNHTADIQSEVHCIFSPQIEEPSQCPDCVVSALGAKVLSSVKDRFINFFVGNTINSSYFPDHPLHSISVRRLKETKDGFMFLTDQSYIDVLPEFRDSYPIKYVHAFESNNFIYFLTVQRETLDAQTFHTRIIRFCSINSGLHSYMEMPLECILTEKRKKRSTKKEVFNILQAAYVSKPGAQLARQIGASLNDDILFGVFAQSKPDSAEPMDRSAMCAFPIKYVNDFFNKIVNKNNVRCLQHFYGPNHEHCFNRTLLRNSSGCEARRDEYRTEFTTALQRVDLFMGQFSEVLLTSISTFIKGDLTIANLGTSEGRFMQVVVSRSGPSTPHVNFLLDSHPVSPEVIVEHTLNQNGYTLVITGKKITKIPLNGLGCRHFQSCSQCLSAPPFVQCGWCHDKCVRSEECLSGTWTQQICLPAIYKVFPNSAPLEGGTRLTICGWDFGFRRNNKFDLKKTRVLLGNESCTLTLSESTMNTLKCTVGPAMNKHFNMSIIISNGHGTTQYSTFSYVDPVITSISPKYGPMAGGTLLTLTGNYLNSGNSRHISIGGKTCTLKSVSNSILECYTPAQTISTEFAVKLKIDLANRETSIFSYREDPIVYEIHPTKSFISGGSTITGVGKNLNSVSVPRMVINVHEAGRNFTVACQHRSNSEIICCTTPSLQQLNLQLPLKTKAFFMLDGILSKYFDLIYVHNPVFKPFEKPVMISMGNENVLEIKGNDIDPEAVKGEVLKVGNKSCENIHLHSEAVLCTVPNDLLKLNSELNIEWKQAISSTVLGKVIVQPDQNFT

- binding result: binds
B1: AbF46, mouse monoclonal antibody to c-Met (hybridoma KCLRF-BP-00220) (antibody, V domains shown)
VH: EVKLVESGGGLVQPGGSLRLSCATSGFTFTDYYMSWVRQPPGKALEWLGFIRNKANGYTTEYSASVKGRFTISRDNSQSILYLQMDTLRAEDSATYYCARDNWFAYWGQGTLVTVSA
VL: DILMTQSPSSLTVSAGEKVTMSCKSSQSLLASGNQNNYLAWHQQKPGRSPKMLIIWASTRVSGVPDRFIGSGSGTDFTLTINSVQAEDLAVYYCQQSYSAPLTFGAGTKLELK
notes: In the screening ELISA it stood as hybridoma culture supernatant; The single clone chosen by this screen produces AbF46; also called mouse antibody AbF46

Source: US20150192588A1 (SAMSUNG ELECTRONICS, published 2015)
